Reference: patent US20250197451A1 (CAPITAL MEDICAL UNIVERSITY SCHOOL OF STOMATOLOGY, published 2025)

biological target: T1, biotin-labelled EZH2 protein (UniProt Q15910 1-746, limits assumed, biotin label (EZ-link NHS-PEO4-Biotinylation kit)); assay: KDM2B peptide array probed with biotin-EZH2 1 ug/ml, SA-HRP/ECL;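 as to Intensity (%): Background-corrected optical density of each spot on the membrane, given as percent of the brightest spot (100%), color developed for 5 minutes; 100% is the highest background-corrected spot optical density on the membrane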
T1 construct: Probe in solution (1 ug/ml) on the KDM2B peptide microarray; also called NHS-PEO4-Biotinylation-labelled EZH2 protein; recombinant protein
T1 sequence (Q15910 whole entry): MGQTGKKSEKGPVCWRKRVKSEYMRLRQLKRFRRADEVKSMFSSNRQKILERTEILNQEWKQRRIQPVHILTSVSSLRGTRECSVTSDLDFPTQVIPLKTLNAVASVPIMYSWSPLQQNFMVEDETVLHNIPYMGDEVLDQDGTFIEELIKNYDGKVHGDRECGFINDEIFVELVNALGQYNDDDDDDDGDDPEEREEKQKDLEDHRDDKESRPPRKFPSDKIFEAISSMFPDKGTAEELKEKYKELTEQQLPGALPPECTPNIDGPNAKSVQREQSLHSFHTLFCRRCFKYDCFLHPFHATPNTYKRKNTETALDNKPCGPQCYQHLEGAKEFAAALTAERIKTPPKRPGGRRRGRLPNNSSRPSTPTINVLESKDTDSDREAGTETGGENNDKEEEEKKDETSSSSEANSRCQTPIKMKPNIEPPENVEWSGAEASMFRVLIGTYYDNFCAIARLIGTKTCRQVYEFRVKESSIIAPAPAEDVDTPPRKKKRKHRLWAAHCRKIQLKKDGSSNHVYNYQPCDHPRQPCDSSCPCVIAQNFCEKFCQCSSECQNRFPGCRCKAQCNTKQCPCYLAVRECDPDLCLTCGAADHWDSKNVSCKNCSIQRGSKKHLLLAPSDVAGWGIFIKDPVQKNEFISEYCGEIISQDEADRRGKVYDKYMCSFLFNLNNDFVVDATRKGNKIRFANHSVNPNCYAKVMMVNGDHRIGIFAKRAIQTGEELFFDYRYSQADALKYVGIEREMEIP
Procedure: (§1) After blocking, the polypeptide microarray was incubated with biotin-labeled target protein for hybridization, visualized with the chemical chromogenic substrate and imaged using a Chempchemi digital imager. The image of colored polypeptide microarray was analyzed for the optical density of the colored points. Particularly, the optical density of each colored point was calculated using the optical density of the respective surrounding background as a reference for background correction. The highest optical density value of the colored point on membrane was set to 100%, and the optical density value of the remaining colored points was converted into percentages relative to the highest value. The points with an optical density percentage of more than 30% on the polypeptide membrane and also with an optical density percentage of less than 30% on the negative membrane were defined as positive colored points.
(§2) For the hybridization experiment, a solution of NHS-PEO4-Biotinylation-labelled EZH2 protein (1 μg/ml) was used for the hybridization of the polypeptide microarray. Streptavidin-HRP was used to amplify the reaction signal according to the experimental procedure and conditions described above, and the time of color development was 5 minutes.

binding result | Binder
no binding | EEEACDQQPQEEEEK [peptide 83]
no binding | DQQPQEEEEKDEEGE [peptide 84]

biological target: T1, biotin-labelled EZH2 protein; assay: KDM2B peptide array probed with biotin-EZH2 1 ug/ml, SA-HRP/ECL; Remark: spike
Procedure: as §1, §2

Binder | Intensity (%)
DSLVFGGNILHSFNV [peptide 65] | 0%
EDTVEEEEGKFNLML [peptide 135] | 0%
SNLPGSLLKEQKMNR [peptide 149] | 0%

The remaining lines, values ahead:

Intensity (%) | Binder
0% | VYTPVDSLVFGGNIL [peptide 64]
0% | DDVHLRKKRKYEKPQ [peptide 160]
0% | SLLKEQKMNRDNKEG [peptide 150]
0% | RRSECEEAPRRRSDE [peptide 154]

biological target: T1, biotin-labelled EZH2 protein; assay: KDM2B peptide array probed with biotin-EZH2 1 ug/ml, SA-HRP/ECL; Remark: noise
Procedure: as §1, §2

Binder | Intensity (%)
TDASLRLIIRHMPLL [peptide 246] | 0%
CEQFIAEMSVSVQFG [peptide 263] | 0.05%
GGTSVWYHVFRGGKI [peptide 50] | 0%
RVISRPPPSVSPPKC [peptide 205] | 0.39%
PTSTPSEDQEALGKK [peptide 90] | 0.19%
DGSTSPTSTPSEDQE [peptide 89] | 0%
VQFGQVEEKLLQKLS [peptide 266] | 0%
NRPGQMDNRSKLRNI [peptide 241] | 0%
LSFFKRCGNICHIDL [peptide 258] | 0.72%
FVRYYETPEAQRDKL [peptide 32] | 0%
IIRRQPVSLDLSWTN [peptide 225] | 0%
ETPEAQRDKLYNVIS [peptide 33] | 0%
LSWTNISKKQLSWLI [peptide 227] | 0%
RELRHQLGPSLRSPP [peptide 202] | 0.64%
KSITPLMLSGIIRRQ [peptide 223] | 0%
SEDQEALGKKPKAPA [peptide 91] | 0%
EMCWYVLERYVYCVT [peptide 73] | 0.19%
RPPGICERPHRFSKG [peptide 198] | 0%

Further lines, results first:

Intensity (%) | Binder
0.18% | LNGTPRELRHQLGPS [peptide 201]
0.23% | VTDQCLSFFKRCGNI [peptide 257]
0% | PKTPTGSPATEVSAK [peptide 99]
0% | IQMERHVIRPPPISP [peptide 208]
0% | TQEYQRESMLIDAPR [peptide 77]
0% | LSWLINRLPGLRDLV [peptide 229]
0% | VTKEGCEQFIAEMSV [peptide 262]
0.32% | HVIRPPPISPPPDSL [peptide 209]
0% | PTLHNLALYEEWVLS [peptide 54]
0% | ALGKKPKAPALRFLK [peptide 92]
0% | ESEESVKSTTLAVDY [peptide 96]
0.02% | DRTRVQPKFRYPFYY [peptide 70]
0% | ISKKQLSWLINRLPG [peptide 228]
0% | MGGSAEDHPPRKRHA [peptide 2]
0% | EFESATQRPIDRQRY [peptide 8]
0.56% | TWNRWCCDKRLWTRI [peptide 219]
0% | PPISPPPDSLPLDDG [peptide 210]
0% | NAIAEMKYPKVKKYC [peptide 44]

biological target: T1, biotin-labelled EZH2 protein; assay: KDM2B peptide array probed with biotin-EZH2 1 ug/ml, SA-HRP/ECL; remark: another data set of the same source;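 as to Intensity (%): Background-corrected optical density of each spot on the membrane, given as percent of the brightest spot (100%), color developed for 5 minutes; 100% is the highest background-corrected spot optical density on the membrane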

Intensity (%) | Binder
0% | EEEACDQQPQEEEEK [peptide 83]
0% | DQQPQEEEEKDEEGE [peptide 84]
